± gives the standard deviation of the averaged measurements.
How the values were obtained:
[1] = test system: MCF7; experiment: percentage of EdU-negative (G0-arrested) nuclei per well, 72 h; higher = more G0 arrest; details: reference: sequence is the full UniProt precursor, the tested protein was the secreted form or ectodomain
[2] = test system: hTERT-HMEC; experiment: as above; details: reference: sequence is the full UniProt precursor, the tested protein was the secreted form or ectodomain
[3] = protein concentration 0.02085 µM
[4] = protein concentration 0.2085 µM
[5] = protein concentration 0.00914286 µM
[6] = protein concentration 0.0914286 µM
[7] = protein concentration 0.0292375 µM
[8] = protein concentration 0.292375 µM
[9] = protein concentration 0.0225 µM
[10] = protein concentration 0.022125 µM
[11] = protein concentration 0.22125 µM
[12] = protein concentration 0.03125 µM
[13] = protein concentration 0.3125 µM
[14] = protein concentration 0.02125 µM
[15] = protein concentration 0.2125 µM
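Also: secreted proteins added to cultured cells, EdU pulse at the end, nuclei found by Hoechst imaging, EdU status from nuclear versus surrounding ring intensity ratio, PBS as neutral control.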

Sequence: MDLVLKRCLLHLAVIGALLAVGATKVPRNQDWLGVSRQLRTKAWNRQLYPEWTEAQRLDCWRGGQVSLKVSNDGPTLIGANASFSIALNFPGSQKVLPDGQVIWVNNTIINGSQVWGGQPVYPQETDDACIFPDGGPCPSGSWSQKRSFVYVWKTWGQYWQVLGGPVSGLSIGTGRAMLGTHTMEVTVYHRRGSRSYVPLAHSSSAFTITDQVPFSVSVSQLRALDGGNKHFLRNQPLTFALQLHDPSGYLAEADLSYTWDFGDSSGTLISRALVVTHTYLEPGPVTAQVVLQAAIPLTSCGSSPVPGTTDGHRPTAEAPNTTAGQVPTTEVVGTTPGQAPTAEPSGTTSVQVPTTEVISTAPVQMPTAESTGMTPEKVPVSEVMGTTLAEMSTPEATGMTPAEVSIVVLSGTTAAQVTTTEWVETTARELPIPEPEGPDASSIMSTESITGSLGPLLDGTATLRLVKRQVPLDCVLYRYGSFSVTLDIVQGIESAEILQAVPSGEGDAFELTVSCQGGLPKEACMEISSPGCQPPAQRLCQPVLPSPACQLVLHQILKGGSGTYCLNVSLADTNSLAVVSTQLIMPGQEAGLGQVPLIVGILLVLMAVVLASLIYRRRLMKQDFSVPQLPHSSSHWLRLPRIFCSCPIGENSPLLSGQQV
- percentage of EdU-negative [1, 3]: 25.3 ± 1.8%
- percentage of EdU-negative [1, 4]: 25.4 ± 2.4%
- percentage of EdU-negative [2, 3]: 4.37 ± 0.18%
- percentage of EdU-negative [2, 4]: 5.18 ± 0.52%

Sequence: MDLWNLSWFLFLDALLVISGLATPENFDVDGGMDQDIFDINEGLGLDLFEGDIRLDRAQIRNSIIGEKYRWPHTIPYVLEDSLEMNAKGVILNAFERYRLKTCIDFKPWAGETNYISVFKGSGCWSSVGNRRVGKQELSIGANCDRIATVQHEFLHALGFWHEQSRSDRDDYVRIMWDRILSGREHNFNTYSDDISDSLNVPYDYTSVMHYSKTAFQNGTEPTIVTRISDFEDVIGQRMDFSDSDLLKLNQLYNCSSSLSFMDSCSFELENVCGMIQSSGDNADWQRVSQVPRGPESDHSNMGQCQGSGFFMHFDSSSVNVGATAVLESRTLYPKRGFQCLQFYLYNSGSESDQLNIYIREYSADNVDGNLTLVEEIKEIPTGSWQLYHVTLKVTKKFRVVFEGRKGSGASLGGLSIDDINLSETRCPHHIWHIRNFTQFIGSPNGTLYSPPFYSSKGYAFQIYLNLAHVTNAGIYFHLISGANDDQLQWPCPWQQATMTLLDQNPDIRQRMSNQRSITTDPFMTTDNGNYFWDRPSKVGTVALFSNGTQFRRGGGYGTSAFITHERLKSRDFIKGDDVYILLTVEDISHLNSTQIQLTPAPSVQDLCSKTTCKNDGVCTVRDGKAECRCQSGEDWWYMGERCEKRGSTRDTIVIAVSSTVAVFALMLIITLVSVYCTRKKYRERMSSNRPNLTPQNQHAF
- percentage of EdU-negative [1, 5]: 24.7 ± 3.1%
- percentage of EdU-negative [1, 6]: 27.5 ± 1.1%
- percentage of EdU-negative [2, 5]: 6.01 ± 0.12%
- percentage of EdU-negative [2, 6]: 6.74 ± 0.94%

Sequence: MDLWQLLLTLALAGSSDAFSGSEATAAILSRAPWSLQSVNPGLKTNSSKEPKFTKCRSPERETFSCHWTDEVHHGTKNLGPIQLFYTRRNTQEWTQEWKECPDYVSAGENSCYFNSSFTSIWIPYCIKLTSNGGTVDEKCFSVDEIVQPDPPIALNWTLLNVSLTGIHADIQVRWEAPRNADIQKGWMVLEYELQYKEVNETKWKMMDPILTTSVPVYSLKVDKEYEVRVRSKQRNSGNYGEFSEVLYVTLPQMSQFTCEEDFYFPWLLIIIFGIFGLTVMLFVFLFSKQQRIKMLILPPVPVPKIKGIDPDLLKEGKLEEVNTILAIHDSYKPEFHSDDSWVEFIELDIDEPDEKTEESDTDRLLSSDHEKSHSNLGVKDGDSGRTSCCEPDILETDFNANDIHEGTSEVAQPQRLKGEADLLCLDQKNQNNSPYHDACPATQQPSVIQAEKNKPQPLPTEGAESTHQAAHIQLSNPSSLSNIDFYAQVSDITPAGSVVLSPGQKNKAGMSQCDMHPEMVSLCQENFLMDNAYFCEADAKKCIPVAPHIKVESHIQPSLNQEDIYITTESLTTAAGRPGTGEHVPGSEMPVPDYTSIHIVQSPQGLILNATALPLPDKEFLSSCGYVSTDQLNKIMP
- percentage of EdU-negative [1, 7]: 25 ± 3.3%
- percentage of EdU-negative [1, 8]: 24.5 ± 1.6%
- percentage of EdU-negative [2, 7]: 4.42 ± 0.8%
- percentage of EdU-negative [2, 8]: 6.44 ± 1.3%

Sequence: MDMAWQMMQLLLLALVTAAGSAQPRSARARTDLLNVCMNAKHHKTQPSPEDELYGQCSPWKKNACCTASTSQELHKDTSRLYNFNWDHCGKMEPTCKRHFIQDSCLYECSPNLGPWIRQVNQSWRKERILNVPLCKEDCERWWEDCRTSYTCKSNWHKGWNWTSGINECPAGALCSTFESYFPTPAALCEGLWSHSFKVSNYSRGSGRCIQMWFDSAQGNPNEEVAKFYAAAMNAGAPSRGIIDS [A0A087WXL1]
- percentage of EdU-negative [1, 9]: 25.4 ± 0.5%
- percentage of EdU-negative ([1]; protein concentration 0.225 µM): 24 ± 1.3%
- percentage of EdU-negative [2, 9]: 5.28 ± 0.77%
- percentage of EdU-negative ([2]; protein concentration 0.225 µM): 4.93 ± 0.46%

Sequence: MDMWTALLILQALLLPSLADGATPALRFVAVGDWGGVPNAPFHTAREMANAKEIARTVQILGADFILSLGDNFYFTGVQDINDKRFQETFEDVFSDRSLRKVPWYVLAGNHDHLGNVSAQIAYSKISKRWNFPSPFYRLHFKIPQTNVSVAIFMLDTVTLCGNSDDFLSQQPERPRDVKLARTQLSWLKKQLAAAREDYVLVAGHYPVWSIAEHGPTHCLVKQLRPLLATYGVTAYLCGHDHNLQYLQDENGVGYVLSGAGNFMDPSKRHQRKVPNGYLRFHYGTEDSLGGFAYVEISSKEMTVTYIEASGKSLFKTRLPRRARP
- percentage of EdU-negative [1, 10]: 24.4 ± 1.2%
- percentage of EdU-negative [1, 11]: 28.4 ± 1.4%
- percentage of EdU-negative [2, 10]: 4.67 ± 0.33%
- percentage of EdU-negative [2, 11]: 8.42 ± 0.15%

Sequence: MDPGLQQALNGMAPPGDTAMHVPAGSVASHLGTTSRSYFYLTTATLALCLVFTVATIMVLVVQRTDSIPNSPDNVPLKGGNCSEDLLCILKRAPFKKSWAYLQVAKHLNKTKLSWNKDGILHGVRYQDGNLVIQFPGLYFIICQLQFLVQCPNNSVDLKLELLINKHIKKQALVTVCESGMQTKHVYQNLSQFLLDYLQVNTTISVNVDTFQYIDTSTFPLENVLSIFLYSNSD
- percentage of EdU-negative [1, 9]: 28 ± 0.99%
- percentage of EdU-negative ([1]; protein concentration 0.225 µM): 27.5 ± 1.8%
- percentage of EdU-negative [2, 9]: 4.46 ± 0.73%
- percentage of EdU-negative ([2]; protein concentration 0.225 µM): 6.03 ± 0.4%

Sequence: MDPKGLLSLTFVLFLSLAFGASYGTGGRMMNCPKILRQLGSKVLLPLTYERINKSMNKSIHIVVTMAKSLENSVENKIVSLDPSEAGPPRYLGDRYKFYLENLTLGIRESRKEDEGWYLMTLEKNVSVQRFCLQLRLYEQVSTPEIKVLNKTQENGTCTLILGCTVEKGDHVAYSWSEKAGTHPLNPANSSHLLSLTLGPQHADNIYICTVSNPISNNSQTFSPWPGCRTDPSETKPWAVYAGLLGGVIMILIMVVILQLRRRGKTNHYQTTVEKKSLTIYAQVQKPGPLQKKLDSFPAQDPCTTIYVAATEPVPESVQETNSITVYASVTLPES
- percentage of EdU-negative [1, 9]: 24.3 ± 0.12%
- percentage of EdU-negative ([1]; protein concentration 0.225 µM): 23.1 ± 0.27%
- percentage of EdU-negative [2, 9]: 5.0759 ± 0.002%
- percentage of EdU-negative ([2]; protein concentration 0.225 µM): 5.04 ± 0.53%

Sequence: MDPKLGRMAASLLAVLLLLLERGMFSSPSPPPALLEKVFQYIDLHQDEFVQTLKEWVAIESDSVQPVPRFRQELFRMMAVAADTLQRLGARVASVDMGPQQLPDGQSLPIPPVILAELGSDPTKGTVCFYGHLDVQPADRGDGWLTDPYVLTEVDGKLYGRGATDNKGPVLAWINAVSAFRALEQDLPVNIKFIIEGMEEAGSVALEELVEKEKDRFFSGVDYIVISDNLWISQRKPAITYGTRGNSYFMVEVKCRDQDFHSGTFGGILHEPMADLVALLGSLVDSSGHILVPGIYDEVVPLTEEEINTYKAIHLDLEEYRNSSRVEKFLFDTKEEILMHLWRYPSLSIHGIEGAFDEPGTKTVIPGRVIGKFSIRLVPHMNVSAVEKQVTRHLEDVFSKRNSSNKMVVSMTLGLHPWIANIDDTQYLAAKRAIRTVFGTEPDMIRDGSTIPIAKMFQEIVHKSVVLIPLGAVDDGEHSQNEKINRWNYIEGTKLFAAFFLEMAQLH [Q96KN2]
- percentage of EdU-negative [1, 12]: 24.9 ± 0.15%
- percentage of EdU-negative [1, 13]: 23 ± 2.2%
- percentage of EdU-negative [2, 12]: 5.23 ± 0.23%
- percentage of EdU-negative [2, 13]: 5.9 ± 0.65%

Sequence: MDPQCTMGLSNILFVMAFLLSGAAPLKIQAYFNETADLPCQFANSQNQSLSELVVFWQDQENLVLNEVYLGKEKFDSVHSKYMGRTSFDSDSWTLRLHNLQIKDKGLYQCIIHHKKPTGMIRIHQMNSELSVLANFSQPEIVPISNITENVYINLTCSSIHGYPEPKKMSVLLRTKNSTIEYDGVMQKSQDNVTELYDVSISLSVSFPDVTSNMTIFCILETDKTRLLSSPFSIELEDPQPPPDHIPWITAVLPTVIICVMVFCLILWKWKKKKRPRNSYKCGTNTMEREESEQTKKREKIHIPERSDEAQRVFKSSKTSSCDKSDTCF
- percentage of EdU-negative [1, 9]: 24 ± 1.6%
- percentage of EdU-negative ([1]; protein concentration 0.225 µM): 25.9 ± 0.81%
- percentage of EdU-negative [2, 9]: 4.6 ± 0.096%
- percentage of EdU-negative ([2]; protein concentration 0.225 µM): 6.71 ± 0.18%

Sequence: MDPRKVNELRAFVKMCKQDPSVLHTEEMRFLREWVESMGGKVPPATQKAKSEENTKEEKPDSKKVEEDLKADEPSSEESDLEIDKEGVIEPDTDAPQEMGDENAEITEEMMDQANDKKVAAIEALNDGELQKAIDLFTDAIKLNPRLAILYAKRASVFVKLQKPNAAIRDCDRAIEINPDSAQPYKWRGKAHRLLGHWEEAAHDLALACKLDYDEDASAMLKEVQPRAQKIAEHRRKYERKREEREIKERIERVKKAREEHERAQREEEARRQSGAQYGSFPGGFPGGMPGNFPGGMPGMGGGMPGMAGMPGLNEILSDPEVLAAMQDPEVMVAFQDVAQNPANMSKYQSNPKVMNLISKLSAKFGGQA
- percentage of EdU-negative [1, 14]: 24.8 ± 1.7%
- percentage of EdU-negative [1, 15]: 27.4 ± 0.36%
- percentage of EdU-negative [2, 14]: 4.96 ± 0.58%
- percentage of EdU-negative [2, 15]: 5.35 ± 0.39%

Sequence: MDPRLPAWALVLLGPALVFALGPAPTPEMREKLCGHHFVRALVRVCGGPRWSTEARRPATGGDRELLQWLERRHLLHGLVADSNLTLGPGLQPLPQTSHHHRHHRAAATNPARYCCLSGCTQQDLLTLCPY
- percentage of EdU-negative [1, 9]: 27 ± 2.5%
- percentage of EdU-negative ([1]; protein concentration 0.225 µM): 26.9 ± 2.5%
- percentage of EdU-negative [2, 9]: 6.04 ± 0.67%
- percentage of EdU-negative ([2]; protein concentration 0.225 µM): 5.1 ± 0.54%

Source: the supplement of paper PMC11316812
